Measurements: paper PMC5029526

Target: HdaB-dsA (donor strand complemented HdaB: HdaB residues 1-119, 14-residue linker, HdaA residues 1-10) (Escherichia coli (enteroaggregative, EAEC))
Assay: SEC; Superdex-75 gel filtration in 50 mM NaOAc pH 5.0, 200 mM NaCl, last step of purification after refolding; monomer (17.5 kDa) and dimer (35 kDa) peaks

HdaB-dsA (donor strand complemented HdaB: HdaB residues 1-119, 14-residue linker, HdaA residues 1-10)
stoichiometry N: 2
